T1: Streptococcus pneumoniae surface adhesin A (PsaA) protein (Streptococcus pneumoniae, UniProt P0A4G2 20-309)
T1 construct: also called Pneumococcal surface adhesin A; recombinant PsaA
T1 sequence: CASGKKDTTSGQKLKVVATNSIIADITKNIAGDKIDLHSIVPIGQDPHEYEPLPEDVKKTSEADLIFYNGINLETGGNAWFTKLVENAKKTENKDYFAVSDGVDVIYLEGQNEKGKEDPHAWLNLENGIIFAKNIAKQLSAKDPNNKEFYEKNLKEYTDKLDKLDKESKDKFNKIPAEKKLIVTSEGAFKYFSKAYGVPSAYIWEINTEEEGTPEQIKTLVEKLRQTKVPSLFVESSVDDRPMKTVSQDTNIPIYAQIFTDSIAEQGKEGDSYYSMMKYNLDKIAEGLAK

B1: Anti-PsaA 7-1G9 (antibody, V domains shown)
VH: QVRLQQWGAGLLKPSETLSLTCAVFGGSFSGFSWSWIRQTPGKGLEWIGEIDYRGSTNYNPSLKSRVTILRDTSRSQFSLKLSSVTAADSAVFYCARGGPRFDYWGQGTLVTVSS
VL: DIQMTQSPSSLSASVGDRVTITCRASQGISSWLAWYQQKPEKAPESLIYVASSLQSGVPSRFSGSGSGTDFTLTISSLQPEDFATYYCQQYNSYPPTFGQGTKVEIK
notes: Fully human monoclonal antibody (HuMAb-Mouse), kappa light chain; also called clone 7-1G9.1
B2: Anti-PsaA 5-9A7 (antibody, V domains shown)
VH: EVQLVESGGGLVQPGGSLRLSCAASGFTFSSFWMSWVRQAPGKGLEWVANIKQDGSEKFYVDSVKGRFTISRDNAKNSLYLQMNSLRAEDTAVYYCARDRITMVRPYYYFYNGLDVWGQGTTVTVSS
VL: EIVLTQSPATLSLSPGERATLSCRASQSVSSYLAWYQQKPGQAPRLLIYDASNRATGIPARFSGSGSGTDFTLTISSLEPEDFAVYYCQQRSNWPPFTFGPGTKVDIK
notes: Fully human monoclonal antibody (HuMAb-Mouse), kappa light chain; also called clone 5-9A7
B3: F(ab′)2 fragment of the anti-PsaA Ab 5-9A7 (other)
VH: B2 VH
VL: B2 VL
notes: F(ab′)2 made by pepsin digestion; also called anti-PsaA F(ab′)2; 5-9A7 F(ab′)2
B4: Anti-PsaA 1-15E5 (antibody, V domains shown)
VH: EVQLVESGGGLVQPGGSLRLSCAASGFTFNIFGMSWVRQAPGKGLEWVANIKQDGSEKYYVDSVKGRFTISRDNAKNSLYLQMNSLRAEDTAVYYCARDRFYYGSGSYYYYYNGMDVWGQGTTVTVSS
VL: EIVLTQSPATLSLSPGERATLSCRASQSVSSYLAWYQQKPGQAPRLLIYDASNRATGIPARFSGSGSGTDFTLTISSLEPEDFAVYYCQQRSNWPLTFGGGTKVEI
notes: Fully human monoclonal antibody (HuMAb-Mouse), kappa light chain; also called clone 1-15E5.2.1; 1-1-15E5

Legend:
[1] = biological target: T1, Streptococcus pneumoniae surface …; test: whole-bacteria ELISA, strain R6, Ab 5 ng/ml
[2] = biological target: T1, Streptococcus pneumoniae surface …; test: whole-bacteria ELISA, strain R6, Ab 5 µg/ml
[3] = biological target: T1, Streptococcus pneumoniae surface …; test: whole-bacteria ELISA, strain 1, Ab 0.5 µg/ml
[4] = biological target: T1, Streptococcus pneumoniae surface …; test: whole-bacteria ELISA, strain 3, Ab 0.5 µg/ml
[5] = biological target: T1, Streptococcus pneumoniae surface …; test: whole-bacteria ELISA, strain 4, Ab 0.5 µg/ml
[6] = biological target: T1, Streptococcus pneumoniae surface …; test: whole-bacteria ELISA, strain 8, Ab 0.5 µg/ml
[7] = biological target: T1, Streptococcus pneumoniae surface …; test: whole-bacteria ELISA, strain R6, Ab 50 ng/ml
[8] = biological target: T1, Streptococcus pneumoniae surface …; test: whole-bacteria ELISA, strain 14, Ab 0.5 µg/ml
[9] = biological target: T1, Streptococcus pneumoniae surface …; test: whole-bacteria ELISA, strain 6B, Ab 0.5 µg/ml
[10] = biological target: T1, Streptococcus pneumoniae surface …; test: whole-bacteria ELISA, strain 7F, Ab 0.5 µg/ml
[11] = biological target: T1, Streptococcus pneumoniae surface …; test: whole-bacteria ELISA, strain 9V, Ab 0.5 µg/ml
[12] = biological target: T1, Streptococcus pneumoniae surface …; test: whole-bacteria ELISA, strain R6, Ab 0.5 ng/ml
[13] = biological target: T1, Streptococcus pneumoniae surface …; test: whole-bacteria ELISA, strain R6, Ab 0.5 µg/ml
[14] = biological target: T1, Streptococcus pneumoniae surface …; test: whole-bacteria ELISA, strain 12F, Ab 0.5 µg/ml
[15] = biological target: T1, Streptococcus pneumoniae surface …; test: whole-bacteria ELISA, strain 23F, Ab 0.5 µg/ml
[16] = biological target: T1, Streptococcus pneumoniae surface …; test: whole-bacteria ELISA, strain D39, Ab 0.5 µg/ml
[17] = biological target: T1, Streptococcus pneumoniae surface …; test: SPR (Biacore 3000), PsaA amine-coupled on CM5 chip, antibody in flow, 1:1 Langmuir fit
[18] = biological target: T2, fusion protein consisting of soluble CD64 linked to the Fc portion of human IgM (human, UniProt P12314 16-292; P01871 106-453, limits assumed); test: bispecific sandwich ELISA: coated recombinant PsaA, detection with soluble CD64-IgM fusion and AP anti-human IgM
T2 construct: Used as a culture supernatant; also called soluble CD64-IgM fusion protein
T2 sequence (P12314 other isoform, or with tags, fused parts or gaps limits assumed): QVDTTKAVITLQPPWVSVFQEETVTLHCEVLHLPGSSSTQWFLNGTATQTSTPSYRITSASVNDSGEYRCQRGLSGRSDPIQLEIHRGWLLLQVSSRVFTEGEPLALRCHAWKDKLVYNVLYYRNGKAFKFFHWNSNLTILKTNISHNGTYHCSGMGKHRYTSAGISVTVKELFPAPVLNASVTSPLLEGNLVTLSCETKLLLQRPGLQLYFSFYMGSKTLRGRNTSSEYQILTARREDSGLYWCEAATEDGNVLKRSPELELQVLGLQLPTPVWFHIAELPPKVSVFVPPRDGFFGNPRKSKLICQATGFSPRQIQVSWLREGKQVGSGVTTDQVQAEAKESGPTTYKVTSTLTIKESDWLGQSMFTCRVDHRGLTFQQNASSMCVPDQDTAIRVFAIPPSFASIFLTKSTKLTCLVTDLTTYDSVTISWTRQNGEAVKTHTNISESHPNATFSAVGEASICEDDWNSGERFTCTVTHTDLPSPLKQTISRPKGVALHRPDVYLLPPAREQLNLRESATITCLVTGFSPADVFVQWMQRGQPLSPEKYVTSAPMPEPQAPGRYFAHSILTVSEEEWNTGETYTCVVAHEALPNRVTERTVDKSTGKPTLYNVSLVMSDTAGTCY

| Binder | R6 ELISA (corrected) [1] | R6 ELISA (corrected) [2] | ELISA (0.5 µg/ml) (corrected) [3] | ELISA (0.5 µg/ml) (corrected) [4] | ELISA (0.5 µg/ml) (corrected) [5] | ELISA (0.5 µg/ml) (corrected) [6] | R6 ELISA (corrected) [7] | ELISA (0.5 µg/ml) (corrected) [8] | ELISA (0.5 µg/ml) (corrected) [9] | ELISA (0.5 µg/ml) (corrected) [10] | ELISA (0.5 µg/ml) (corrected) [11] | R6 ELISA (corrected) [12] | ELISA (0.5 µg/ml) (corrected) [13] | R6 ELISA (corrected) [13] | ELISA (0.5 µg/ml) (corrected) [14] | ELISA (0.5 µg/ml) (corrected) [15] | ELISA (0.5 µg/ml) (corrected) [16] | Kd [17] [pM] | koff [17] [s⁻¹] | kon [17] [M⁻¹ s⁻¹] | other results |
| --- | --- | --- | --- | --- | --- | --- | --- | --- | --- | --- | --- | --- | --- | --- | --- | --- | --- | --- | --- | --- | --- |
| B1 | 0.54 | 1.36 | 0.35 | 1.24 | 0.33 | 1.5 | 1.78 | 1.32 | 0.4 | 1.06 | > 3 | 0.31 | 1.38 | 1.68 | 1.46 | 0.36 | 0.68 | 63.4 | 2.87e-05 | 435000 | – |
| B2 | 0.41 | 1.39 | 0.4 | 1.31 | 0.33 | 1.52 | 1.32 | 1.42 | 0.39 | 1.17 | > 3 | 0.26 | 1.39 | 1.65 | 1.51 | 0.37 | 0.66 | 37.4 | 1.41e-05 | 377000 | – |
| B3 | – | – | – | – | – | – | – | – | – | – | – | – | – | – | – | – | – | – | – | – | binding result [18]: no binding (tested: 1 µg/ml) |
| B4 | – | – | – | – | – | – | – | – | – | – | – | – | – | – | – | – | – | 118 | 6.72e-06 | 57100 | – |
